Experimental data reported in patent US20180305432A1.

Biological target: self-lipid accumulated in leukemia cells peptide on CD1c (human)
Experiment: mLPA titration on K562-CD1c cells; CD69 on transduced Jurkat 76 b2m- cells (FIG. 5B); highest of the three TCRs titrated; full-length, on cells
Conditions: chains Valpha:Vbeta

EC50 of peptide: 100 mg/L
B1: TCR DN4.99 (protein)
chain 1: AQTVTQSQPEMSVQEAETVTLSCTYDTSESDYYLFWYKQPPSRQMILVIRQEAYKQQNATENRFSVNFQKAAKSFSLKISDSQLGDAAMYFCAYRSPLNTGTASKLTFGTGTRLQVTL
chain 2: DVKVTQSSRYLVKRTGEKVFLECVQDMDHENMFWYRQDPGLGLRLIYFSYDVKMKEKGDIPEGYSVSREKKERFSLILESASTNQTSMYLCASSPWVSSYEQYFGPGTRLTVT
